The results in this text go back to patent US20250197448A1, “CYCLOPEPTIBODIES AND USES THEREOF” (University of Rochester, priority 2022, published 2025).

A short description of data set [1]: serum stability assay in human blood serum. The format is in vitro ADME. Here is the method:
The proteolytic stability of cyclopeptibodies cCLP003-Tras-Fc and L2-m5-Tras-Fc were assessed by incubating these proteins in human blood serum, followed by measurement of the cyclopeptibody activity using an in vitro binding assay with plate-immobilized PD-L1 or Sh as described in Example 7 and 8, respectively.
Serum stability Assay. The human male serum (Sigma-Aldrich) was clarified by centrifugation at 14 000 rpm for 15 min. 50% serum was prepared in phosphate-buffered saline (pH 7.4), then incubated at 37° C. Cyclopeptiodies were dissolved in 30 μL of 50% serum at a final concentration of 1 μM, incubated at 37° C. Serum samples with diluted cyclopeptibodies were prepared in the same way described above over a time course of 30 h for cCLP003-Tras-Fc-His and 24 h for L2-m5-Tras-Fc-His, followed by incubated at 37° C. Intact cyclopeptibodies in serum were quantified using the binding assay described above. In the assay, immobilized PD-L1 or Shh was incubated with 100 μL of serum samples diluted with PBS (1:10 dilution for cCLP003-Tras-Fc-His, 1:100 dilution for L2-m5-Tras-Fc-His). Intact cyclopeptibody in each sample was detected with HRP-conjugate mouse anti-FLAG polyclonal antibody. The absolute concentration of intact cyclopeptibody in each serum sample was quantified using a calibration curve, which was generated from a binding assay in which immobilized PD-L1 or Shh was incubated with cyclopeptibody in serial dilution (0-100 nM for cCLP003-Tras-Fc-His; 0-10 nM for L2-m5-Tras-Fc-His), followed by detected with HRP-conjugate mouse anti-FLAG polyclonal antibody, absorbance at 450 nm was measured as a function of cyclopeptibody concentration.

The target in data set [2] is T1, PD-L1 receptor on MDA-MB-231 cells (Homo sapiens, UniProt Q9NZQ7).
T1 construct: known to express high levels of PD-L1 on their surface; endogenous in cells; host or cells: MDA-MB-231
T1 sequence (Q9NZQ7 19-290): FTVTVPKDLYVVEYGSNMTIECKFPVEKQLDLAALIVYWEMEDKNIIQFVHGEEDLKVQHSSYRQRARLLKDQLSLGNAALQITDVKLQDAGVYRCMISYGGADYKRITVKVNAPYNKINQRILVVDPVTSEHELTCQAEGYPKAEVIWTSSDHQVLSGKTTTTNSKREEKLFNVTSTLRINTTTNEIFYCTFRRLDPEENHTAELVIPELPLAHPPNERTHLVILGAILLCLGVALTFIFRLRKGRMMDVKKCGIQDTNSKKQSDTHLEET
The data set can be described thus: flow cytometry of MDA-MB-231 cells, PD-L1 labeling with FITC anti-human IgG Fc. The format is cell-based. Conditions: concentration not given at the place. The procedure:
The cells were then incubated with fluorescein-conjugated anti-human IgG Fc antibody and analyzed by flow cytometry. The same experiment was carried out in parallel using commercially available anti-PD-L1 antibody as positive control and various negative controls.
Flow Cytometry Analysis. […] When confluent, media was aspirated, cells were washed once with 1×DPBS (no calcium, no magnesium) (Gibco). Adherent cells were detached from the petri dish with 1 mL of accutase (Gibco) pre-warmed to 37° C., followed by incubated for 5 min at 37° C. Cells were spun down using centrifugation. Supernatant was removed and cells were washed three times with staining buffer (1×PBS with 0.5% BSA). Cells were resuspended in Eppendorf tubes in 100 μL PBS at a concentration of 107cells per mL. […] Eppendorf tubes were then placed on the platform shaker for gently shaking for 1 hour at room temperature. After 1 hour, cells were spun down using centrifugation, then supernatant was removed. […] Cells were washed as described above, then resuspended in 400 μL staining buffer. […] The cells of interest were gated using Forward and Side scatter (FSC/SSC). 10,000 singlet events were collected for each specimen.

Another data set deals with Sonic Hedgehog (Shh) (Homo sapiens, UniProt Q15465). Kind of data set: in vitro Shh binding assay (plate-immobilized Shh). Here is the method: Streptavidin Binding Assay. For the streptavidin binding assays, streptavidin-coated plates (Sigma-Aldrich) were used. For the Keap1, Shh and PD-L1 binding assay, target protein was immobilized on microtiter plates by incubating 100 μL of a 4 μM protein solution in PBS buffer overnight at 4° C., followed by decanting the protein solution and blocking with 0.5% bovine serum albumin in PBS for 2 h at room temperature. After washing (3×150 μL of PBS with 0.05% Tween-20), each well was incubated with 100 μL of purified FLAG-tagged cyclopeptibody at varying concentrations for 1 hour at room temperature. After washing three times with wash buffer, each well was incubated with 100 μL of 1:2500 dilution of HRP-conjugate mouse anti-FLAG polyclonal antibody (Sigma-Aldrich) for 1 hour at room temperature. After washing three times with wash buffer, 100 μL of 2.2 mM o-phenylenediamine dihydrochloride, 4.2 mM urea hydrogen peroxide, 100 mM dibasic sodium phosphate, and 50 mM sodium citrate, pH 5.0, were added to each well, followed by measurement of the absorbance at 450 nm after 10-20 min using a Tecan Infinite 1000 plate reader. Equilibrium dissociation constants (Kp) were determined by fitting the dose-response curves to a 1:1 binding isotherm equation via nonlinear regression. using SigmaPlot. Mean values and standard deviations were calculated from experiments performed in triplicate. […]

A further data set concerns the target T2, PD-1/PD-L1 interaction (Homo sapiens, UniProt Q9NZQ7).
T2 construct: poly-histidine (C); made in house; PD-1 co-expressed with BirA
The data set can be described thus: PD-L1 competition assay with biotinylated PD-1. The data set is classed as binding. The procedure: Next, we examined the ability of the cyclopeptibody cCLP003-Tras-Fc to inhibit the PD-1/PD-L1 interaction using a competition assay with recombinant biotinylated PD-1 (Bio-PD-1). Briefly, PD-L1 immobilized on a plate was incubated with Bio-PD-1 and varying concentrations of cCLP003-Tras-Fc or control Fc. The PD-L1-bound PD-1 was then quantified colorimetrically (OD450) using horseradish peroxidase (HRP)-conjugated streptavidin.
PD-L1 Competition Assay. PD-L1 was immobilized on microtiter plates as described above. followed by decanting the protein solution and blocking with 0.5% bovine serum albumin in PBS for 2 h at room temperature. After washing, each well was incubated with 100 μL of serial dilutions of cCLP003-Tras-Fc-His for 1 hour at room temperature. Biotinylated PD-1 (500 nM) was added and incubated for 1 h at room temperature. After washing, the bound PD-1 was quantified by means of HRP-conjugate Streptavidin and colorimetric assay as described above. The inhibitory constant (IC50) was determined by fitting the dose-response curves to a 4-parameter equation via nonlinear regression using SigmaPlot. Mean values and standard deviations were calculated from experiments performed in triplicate.

The next data set has as its target T3, streptavidin (Streptomyces avidinii, UniProt P22629).
T3 construct: purchased Sigma-Aldrich
The data set can be described thus: in vitro streptavidin binding assay (streptavidin-coated plates, anti-FLAG HRP detection). From the text: To prepare a cyclopeptibody capable of binding the protein streptavidin, a cyclic streptavidin-binding peptide previously discovered via phage display (Owens et al, ACS Cent Sci. (2020); 6(3):368-381) was genetically fused to the Fc domain of human IgG1 via a spacer (Entry 1, Table 1). The resulting cyclopeptibody (called Strep-m3-Tras-Fc) was expressed, purified, and characterized as described in Example 4. This construct was confirmed to contain the cyclic peptide constrained via O2beY/Cys thioether (i/i-8) linkage, where ‘i’ indicates the position of the non-canonical amino acid O2beY (also refereed to herein as p-2beF). […]
Streptavidin Binding Assay. […] After washing three times with wash buffer, 100 μL of 2.2 mM o-phenylenediamine dihydrochloride, 4.2 mM urea hydrogen peroxide, 100 mM dibasic sodium phosphate, and 50 mM sodium citrate, pH 5.0, were added to each well, followed by measurement of the absorbance at 450 nm after 10-20 min using a Tecan Infinite 1000 plate reader. Equilibrium dissociation constants (Kp) were determined by fitting the dose-response curves to a 1:1 binding isotherm equation via nonlinear regression. using SigmaPlot. Mean values and standard deviations were calculated from experiments performed in triplicate.

Data set [3] has as its target T4, integrin αvβ3 on MDA-MB-231 cells (Homo sapiens, UniProt P05106+P06756).
T4 construct: known to express high levels of integrin αvβ3 on their surface; endogenous in cells; host or cells: MDA-MB-231
The data set can be described thus: flow cytometry of MDA-MB-231 cells, integrin receptor labeling. The format is cell-based. Conditions: for labeling of integrin receptors on MDA-MB-231 cells (in words): FITC anti-IgG1 Fc detection. Here is the method: Flow Cytometry Analysis. Cell line MDA-MB-231 was grown in culture to reach confluency. When confluent, media was aspirated, cells were washed once with 1×DPBS (no calcium, no magnesium) (Gibco). Adherent cells were detached from the petri dish with 1 mL of accutase (Gibco) pre-warmed to 37° C., followed by incubated for 5 min at 37° C. Cells were spun down using centrifugation. Supernatant was removed and cells were washed three times with staining buffer (1×PBS with 0.5% BSA). Cells were resuspended in Eppendorf tubes in 100 μL PBS at a concentration of […]. Cyclopeptibodies or Human anti-PD-L1 antibody (1 μg) (R&D Systems, MAB10355) in staining buffer were then added to the tubes with a concentration of 1.5 μM in 200 μL. Eppendorf tubes were then placed on the platform shaker for gently shaking for 1 hour at room temperature. After 1 hour, cells were spun down using centrifugation, then supernatant was removed. After washing three times, cells were resuspended in 200 μL of Fluorescein (FITC) AffiniPure Goat Anti-Human IgG with working concentration of 30 μg/mL (Jackson ImmunoResearch, 109-095-098), incubated in the dark for 30 min at room temperature. Cells were washed as described above, then resuspended in 400 μL staining buffer. Then cells were analyzed on a BD FACS Accuri C6^+ using a filter of 533/30. The cells of interest were gated using Forward and Side scatter (FSC/SSC). 10,000 singlet events were collected for each specimen.
After purification as described in Example 2, these cyclopeptibodies were used to treat breast cancer cells (MDA-MB-231), which are known to express high levels of integrin αvβ3 on their surface. The cyclopeptibody treated cells were then analyzed by flow cytometry using a procedure similar to that described for the PD-L1-targeting cyclopeptibodies in Example 9.

Entries after “also recorded” stand apart in the source; their conditions may differ. Starred links: 1 amine or outer side, 2 acyl side, 3 side chain; linkers in the order of their positions; H or OH if unused. Positions of bridges follow the written chain, without caps; N, C: chain ends. Non-standard residues stand in square brackets, D forms with d. No end group written: not given here. O2beY = O-(2-bromoethyl)-tyrosine (p-2beF), reacts with Cys to form a thioether, O=C([C@H](Cc1ccc(OCCBr)cc1)N[*:1])[*:2]; pCaaF = p-(2-chloroacetamido)-phenylalanine, O=C(CCl)Nc1ccc(C[C@H](N[*:1])C(=O)[*:2])cc1

T4 sequence (P06756 31-889 limits assumed): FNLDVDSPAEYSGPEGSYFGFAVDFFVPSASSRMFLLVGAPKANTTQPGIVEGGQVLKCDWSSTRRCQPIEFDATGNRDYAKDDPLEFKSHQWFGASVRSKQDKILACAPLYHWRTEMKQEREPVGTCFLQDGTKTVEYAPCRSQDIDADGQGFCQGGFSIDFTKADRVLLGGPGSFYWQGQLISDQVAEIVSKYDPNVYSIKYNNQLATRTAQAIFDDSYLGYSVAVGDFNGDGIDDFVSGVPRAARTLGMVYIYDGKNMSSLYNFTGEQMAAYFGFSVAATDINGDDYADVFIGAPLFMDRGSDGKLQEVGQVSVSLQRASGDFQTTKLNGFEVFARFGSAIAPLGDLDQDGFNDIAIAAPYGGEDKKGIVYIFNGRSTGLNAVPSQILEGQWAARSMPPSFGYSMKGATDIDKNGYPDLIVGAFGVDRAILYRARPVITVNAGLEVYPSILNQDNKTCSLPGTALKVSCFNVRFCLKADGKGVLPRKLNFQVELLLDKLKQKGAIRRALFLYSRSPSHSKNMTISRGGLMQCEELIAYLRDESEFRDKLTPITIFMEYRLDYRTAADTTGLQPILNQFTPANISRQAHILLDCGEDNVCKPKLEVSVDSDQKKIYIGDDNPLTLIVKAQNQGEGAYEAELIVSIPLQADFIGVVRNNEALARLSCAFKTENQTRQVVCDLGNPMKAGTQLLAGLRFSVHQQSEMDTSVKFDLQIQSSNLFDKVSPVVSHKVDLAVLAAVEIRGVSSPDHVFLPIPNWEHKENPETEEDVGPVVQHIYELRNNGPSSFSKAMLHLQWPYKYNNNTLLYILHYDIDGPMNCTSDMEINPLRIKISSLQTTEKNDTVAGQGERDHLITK
T4 sequence (P06756 891-1048 partner limits assumed): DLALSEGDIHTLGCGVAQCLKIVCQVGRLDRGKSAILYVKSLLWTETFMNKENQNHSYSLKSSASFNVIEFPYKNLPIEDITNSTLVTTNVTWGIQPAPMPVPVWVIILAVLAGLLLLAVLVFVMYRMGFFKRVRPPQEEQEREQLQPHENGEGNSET
T4 sequence (P05106 27-788): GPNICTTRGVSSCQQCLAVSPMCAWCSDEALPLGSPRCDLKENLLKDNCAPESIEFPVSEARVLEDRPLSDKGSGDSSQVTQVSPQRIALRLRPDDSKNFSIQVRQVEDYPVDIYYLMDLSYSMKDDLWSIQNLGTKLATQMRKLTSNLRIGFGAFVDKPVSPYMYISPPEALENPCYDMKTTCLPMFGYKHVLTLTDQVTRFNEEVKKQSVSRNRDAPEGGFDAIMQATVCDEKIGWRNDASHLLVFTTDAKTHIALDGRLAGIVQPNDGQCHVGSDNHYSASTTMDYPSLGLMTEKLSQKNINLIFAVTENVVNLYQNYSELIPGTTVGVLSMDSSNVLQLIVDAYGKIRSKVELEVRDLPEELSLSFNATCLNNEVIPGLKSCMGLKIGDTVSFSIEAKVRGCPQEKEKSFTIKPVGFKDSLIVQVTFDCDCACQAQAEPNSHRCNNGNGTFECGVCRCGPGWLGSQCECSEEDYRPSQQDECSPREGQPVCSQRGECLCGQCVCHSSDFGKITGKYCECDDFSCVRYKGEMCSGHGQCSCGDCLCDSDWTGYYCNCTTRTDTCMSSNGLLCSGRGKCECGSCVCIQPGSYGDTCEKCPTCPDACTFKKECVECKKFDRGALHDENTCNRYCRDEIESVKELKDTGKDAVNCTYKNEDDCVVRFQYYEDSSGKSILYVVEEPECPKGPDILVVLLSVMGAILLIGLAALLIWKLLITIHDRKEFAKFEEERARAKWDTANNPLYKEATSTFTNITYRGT
T3 sequence (P22629 25-183): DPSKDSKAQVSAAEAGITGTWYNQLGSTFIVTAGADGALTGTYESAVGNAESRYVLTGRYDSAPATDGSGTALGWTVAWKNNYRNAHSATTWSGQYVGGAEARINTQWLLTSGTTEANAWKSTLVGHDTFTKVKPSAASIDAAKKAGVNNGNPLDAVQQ
T2 sequence (Q9NZQ7 19-238 limits assumed): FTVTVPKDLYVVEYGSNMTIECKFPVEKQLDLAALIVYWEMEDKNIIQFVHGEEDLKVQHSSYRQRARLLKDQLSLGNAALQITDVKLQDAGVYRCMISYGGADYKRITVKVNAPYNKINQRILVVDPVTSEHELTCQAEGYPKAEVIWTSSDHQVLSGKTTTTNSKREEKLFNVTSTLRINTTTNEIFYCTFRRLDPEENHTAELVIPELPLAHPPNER

For “FLAG-(GS)2-TLSWZEAMDMCTSS-(Q)6-(Fc)^1-H6 (DYKDDDDKGSGSTLSW[O2beY]EAMDMCTSSQQQQQQ-{Fc-H6}; thioether 17-23 (inferred)) [L2-m5-Tras-Fc]”, in data set [1] (50% serum, 37° C., readout Shh binding assay), the “half-life in human blood serum, indicated” value was in the range of 30 to 50 h. The “loss in activity in human blood serum” value in data set [1] (over 24 h, readout Shh binding assay) was “no loss in activity”.
As to “Fc domain: human IgG1 Fc domain alone, negative control [reference compound]”, the “staining / labeling of PD-L1 receptors on MDA-MB-231 cells (in words)” value in data set [2] is “negligible non-specific interaction”; in data set [2] (listed as human IgG1 Fc domain), “negligible staining”. Further, the “Shh binding (in words)” value with Sonic Hedgehog (Shh) is given as “no significant binding below 500 nM”. In addition, in the data set with PD-1/PD-L1 interaction, the “inhibition of PD-1/PD-L1 interaction (in words)” value is recorded as “did not exhibit significant inhibitory activity”. In addition, the “streptavidin binding (in words)” value with streptavidin is “no binding”. Also, in data set [3], the “labeling of integrin receptors on MDA-MB-231 cells (in words)” value (“labeling of integrin receptors” below) is reported as “minimal or significantly reduced staining; also recorded: negligible non-specific interaction”.
Turning to “FLAG-(GS)2-WHFSZNWRWLPC-(Q)6-(Fc)^1-H6 (DYKDDDDKGSGSWHFS[pCaaF]NWRWLPCQQQQQQ; thioether 17-24 (inferred); not fully specified (C-terminus)) [cCLP003-Tras-Fc]”, the “half-life in human blood serum” value in data set [1] (50% serum, 37° C., readout PD-L1 binding assay) was “over 24 hrs”. The “staining / labeling of PD-L1 receptors on MDA-MB-231 cells (in words)” value in data set [2] is reported as “selective labeling of PD-L1 receptors”.
For the substance “FLAG-(GS)2-CRDRGDYZ-(Q)6-IEGR-(Fc)^1-H6 (DYKDDDDKGSGSCRDRGDY[pCaaF]QQQQQQIEGR-{Fc-H6}; thioether 13-20 (inferred)) [RGD5R (pCaaF)-Tras-Fc]”, the results for the “labeling of integrin receptors” value in data set [3] and in data set [3] (listed as cRGD5R (pCaaF)-Tras-Fc) were “label the cells” and “selective labeling of the integrin receptors”, respectively.
On to “FLAG-(GS)2-CRDRGDYZ-(Q)6-IEGR-(Fc)^1-H6 [RGD5R (pCmF)-Tras-Fc]”, for which, in data set [3] (listed as cRGD5R (pCmF)-Tras-Fc), the “labeling of integrin receptors” value is listed as “selective labeling of the integrin receptors”. The “receptor affinity and labeling efficiency compared to the corresponding cyclic peptides” value in data set [3] (MDA-MB-231 cells) is “superior receptor affinity and labeling efficiency”.
